{"source": "paper PMC9918532", "proteins": {"B1": {"name": "YTHDF2: OSMI-1 (protein)", "parent chain": "MSASSLLEQRPKGQGNKVQNGSVHQKDGLNDDDFEPYLSPQARPNNAYTAMSDSYLPSYYSPSIGFSYSLGEAAWSTGGDTAMPYLTSYGQLSNGEPHFLPDAMFGQPGALGSTPFLGQHGFNFFPSGIDFSAWGNNSSQGQSTQSSGYSSNYAYAPSSLGGAMIDGQSAFANETLNKAPGMNTIDQGMAALKLGSTEVASNVPKVVGSAVGSGSITSNIVASNSLPPATIAPPKPASWADIASKPAKQQPKLKTKNGIAGSSLPPPPIKHNMDIGTWDNKGPVAKAPSQALVQNIGQPTQGSPQPVGQQANNSPPVAQASVGQQTQPLPPPPPQPAQLSVQQQAAQPTRWVAPRNRGSGFGHNGVDGNGVGQSQAGSGSTPSEPHPVLEKLRSINNYNPKDFDWNLKHGRVFIIKSYSEDDIHRSIKYNIWCSTEHGNKRLDAAYRSMNGKGPVYLLFSVNGSGHFCGVAEMKSAVDYNTCAGVWSQDKWKGRFDVRWIFVKDVPNSQLRHIRLENNENKPVTNSRDTQEVPLEKAKQVLKIIASYKHTTSIFDDFSHYEKRQEEEESVKKERQGRGK"}, "B2": {"name": "YTHDF2: TMG (protein)", "parent chain": "B1 parent chain"}, "B3": {"name": "YTHDF2: S263A (protein)", "parent chain": "B1 parent chain"}, "B4": {"name": "YTHDF2: OGT knockdown (protein)", "parent chain": "B1 parent chain"}, "B5": {"name": "YTHDF2: shOGT (protein)", "parent chain": "B1 parent chain"}}, "key": {"[1]": {"assay": "HA-Ub in-cell ubiquitination, anti-HA and anti-K48 blot", "conditions": "glycan lost; control: untreated / control shRNA"}, "[2]": {"assay": "nuclear/cytosolic fractionation and immunofluorescence"}, "[3]": {"assay": "immunoblot of endogenous YTHDF2, hepatoma cells", "conditions": "control: untreated / control shRNA"}, "[4]": {"assay": "CHX chase, HepG2-HBV1.3-shYTHDF2", "conditions": "glycan gained; control: untreated Flag-YTHDF2-WT"}, "[5]": {"assay": "actinomycin D chase, RT-qPCR, HepG2-HBV1.3-shYTHDF2", "conditions": "glycan lost; control: YTHDF2-WT"}, "[6]": {"assay": "in vitro ubiquitination with His-OGT and UDP-GlcNAc", "conditions": "glycan lost; control: YTHDF2-WT"}, "[7]": {"assay": "HA-Ub in-cell ubiquitination, Flag IP, MG132", "conditions": "glycan lost; control: YTHDF2-WT"}, "[8]": {"assay": "CHX chase, HepG2-HBV1.3-shYTHDF2, anti-Flag blot", "conditions": "glycan lost; control: YTHDF2-WT"}, "[9]": {"assay": "CHX chase, Flag-YTHDF2 in HepG2-HBV1.3", "conditions": "glycan lost; control: control shRNA"}, "[10]": {"assay": "CHX chase, endogenous YTHDF2 in HepAD38", "conditions": "glycan lost; control: control shRNA"}}, "data": [{"protein": "B1", "values": [{"measurement": "other: ubiquitination", "setting": "[1]", "value": "increases"}, {"measurement": "localisation_or_trafficking", "setting": "[2]; glycan lost, control: untreated", "value": "no change"}, {"measurement": "expression_or_secretion", "setting": "[3]; glycan lost", "value": "decreases"}]}, {"protein": "B2", "values": [{"measurement": "localisation_or_trafficking", "setting": "[2]; glycan gained, control: untreated", "value": "no change"}, {"measurement": "expression_or_secretion", "setting": "[3]; glycan gained", "value": "increases"}, {"measurement": "degradation_or_half_life", "setting": "[4]", "value": "increases"}]}, {"protein": "B3", "values": [{"measurement": "other: stabilisation of target mRNA", "setting": "[5]", "value": "decreases"}, {"measurement": "localisation_or_trafficking", "setting": "[2]; glycan lost, control: YTHDF2-WT", "value": "no change"}, {"measurement": "other: ubiquitination", "setting": "[6]", "value": "increases"}, {"measurement": "other: ubiquitination", "setting": "[7]", "value": "increases"}, {"measurement": "degradation_or_half_life", "setting": "[8]", "value": "decreases"}]}, {"protein": "B4", "values": [{"measurement": "expression_or_secretion", "setting": "[3]; glycan lost", "value": "decreases"}]}, {"protein": "B5", "values": [{"measurement": "degradation_or_half_life", "setting": "[9]", "value": "decreases"}, {"measurement": "other: ubiquitination", "setting": "[1]", "value": "increases"}, {"measurement": "degradation_or_half_life", "setting": "[10]", "value": "decreases"}]}]}
